Results on two molecules are retold here after PMC6134028, “Mutant FUS causes DNA ligation defects to inhibit oxidative damage repair in Amyotrophic Lateral Sclerosis” (Nature Communications, 2018).

One experiment deals with Flag-FUS-R521H (human) (UniProt P35637). Briefly: proximity ligation; PLA of Flag vs XRCC1, LigIII or PARP-1 in GO-treated SH-SY5Y cells expressing Flag-tagged WT or R521H FUS.
Experiment [1] has as its target XRCC1/LigIII complex, purified from insect cells (UniProt P18887 1-633; P49916 88-1009). Briefly: cell-based or functional assay.
For experiment [2], the target named is T1, PARP-1, His-tag protein, purified (human, UniProt P09874 1-1014).
T1 construct: human PARP1, recombinant; also called human PARP1 purified protein; source: expressed as His-tag protein, purified (Ni-agarose column, cation exchange)
Briefly: pull-down; GST-FUS with the partner at 4 C overnight on glutathione affinity gel, washed three times with TEN buffer (20 mM Tris-HCl pH 7.4, 0.1 mM EDTA, 100 mM NaCl), immunoblot; for XRCC1 also in the presence of PARP-1 and NAD+ (PARylation enhanced the interaction). The note with it: both partners purified. In general terms: In western blotting, separated proteins are transferred to a membrane and probed.

Chain of XRCC1/LigIII complex, purified from insect cells (P18887 whole entry, chain 1 of 2): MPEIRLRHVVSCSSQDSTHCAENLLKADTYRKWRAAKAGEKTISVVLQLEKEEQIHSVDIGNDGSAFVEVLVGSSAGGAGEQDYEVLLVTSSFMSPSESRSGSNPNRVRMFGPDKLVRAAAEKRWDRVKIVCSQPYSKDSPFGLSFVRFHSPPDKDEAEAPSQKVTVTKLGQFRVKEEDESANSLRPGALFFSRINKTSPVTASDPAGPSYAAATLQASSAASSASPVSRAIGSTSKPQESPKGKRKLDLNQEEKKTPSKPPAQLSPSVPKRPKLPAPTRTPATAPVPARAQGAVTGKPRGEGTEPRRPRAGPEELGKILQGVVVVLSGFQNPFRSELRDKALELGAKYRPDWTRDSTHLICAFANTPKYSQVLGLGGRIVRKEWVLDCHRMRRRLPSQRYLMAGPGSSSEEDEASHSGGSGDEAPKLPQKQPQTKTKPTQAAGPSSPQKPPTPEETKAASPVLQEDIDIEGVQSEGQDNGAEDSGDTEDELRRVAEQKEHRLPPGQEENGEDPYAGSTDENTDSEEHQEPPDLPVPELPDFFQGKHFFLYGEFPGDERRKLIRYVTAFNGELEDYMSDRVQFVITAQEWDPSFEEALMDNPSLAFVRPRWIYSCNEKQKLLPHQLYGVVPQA
Chain of XRCC1/LigIII complex, purified from insect cells (P49916 88-1009, chain 2 of 2): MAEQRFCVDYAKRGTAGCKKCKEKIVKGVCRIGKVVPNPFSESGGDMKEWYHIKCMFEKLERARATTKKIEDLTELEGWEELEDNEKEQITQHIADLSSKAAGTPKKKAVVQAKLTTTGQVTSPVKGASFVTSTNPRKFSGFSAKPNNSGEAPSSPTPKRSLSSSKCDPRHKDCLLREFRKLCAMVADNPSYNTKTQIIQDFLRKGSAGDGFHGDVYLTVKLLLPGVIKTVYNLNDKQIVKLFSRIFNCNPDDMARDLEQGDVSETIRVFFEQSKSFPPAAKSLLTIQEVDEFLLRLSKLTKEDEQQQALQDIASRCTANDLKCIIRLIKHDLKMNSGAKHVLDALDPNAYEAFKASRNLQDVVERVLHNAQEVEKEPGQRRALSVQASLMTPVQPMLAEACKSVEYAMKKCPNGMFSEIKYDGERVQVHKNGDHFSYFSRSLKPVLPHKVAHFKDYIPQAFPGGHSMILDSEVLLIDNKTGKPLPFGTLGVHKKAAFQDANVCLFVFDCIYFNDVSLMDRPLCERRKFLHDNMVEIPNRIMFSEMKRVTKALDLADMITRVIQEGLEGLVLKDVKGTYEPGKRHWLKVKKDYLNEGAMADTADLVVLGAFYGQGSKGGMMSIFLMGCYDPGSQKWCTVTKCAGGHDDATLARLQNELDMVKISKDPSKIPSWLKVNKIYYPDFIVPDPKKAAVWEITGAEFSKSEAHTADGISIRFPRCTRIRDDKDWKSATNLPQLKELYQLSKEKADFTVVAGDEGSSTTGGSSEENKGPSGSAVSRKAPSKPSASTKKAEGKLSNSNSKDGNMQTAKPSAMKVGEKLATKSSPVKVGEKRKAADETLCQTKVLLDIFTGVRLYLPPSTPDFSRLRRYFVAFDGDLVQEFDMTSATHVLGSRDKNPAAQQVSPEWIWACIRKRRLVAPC
T1 sequence (P09874 whole entry): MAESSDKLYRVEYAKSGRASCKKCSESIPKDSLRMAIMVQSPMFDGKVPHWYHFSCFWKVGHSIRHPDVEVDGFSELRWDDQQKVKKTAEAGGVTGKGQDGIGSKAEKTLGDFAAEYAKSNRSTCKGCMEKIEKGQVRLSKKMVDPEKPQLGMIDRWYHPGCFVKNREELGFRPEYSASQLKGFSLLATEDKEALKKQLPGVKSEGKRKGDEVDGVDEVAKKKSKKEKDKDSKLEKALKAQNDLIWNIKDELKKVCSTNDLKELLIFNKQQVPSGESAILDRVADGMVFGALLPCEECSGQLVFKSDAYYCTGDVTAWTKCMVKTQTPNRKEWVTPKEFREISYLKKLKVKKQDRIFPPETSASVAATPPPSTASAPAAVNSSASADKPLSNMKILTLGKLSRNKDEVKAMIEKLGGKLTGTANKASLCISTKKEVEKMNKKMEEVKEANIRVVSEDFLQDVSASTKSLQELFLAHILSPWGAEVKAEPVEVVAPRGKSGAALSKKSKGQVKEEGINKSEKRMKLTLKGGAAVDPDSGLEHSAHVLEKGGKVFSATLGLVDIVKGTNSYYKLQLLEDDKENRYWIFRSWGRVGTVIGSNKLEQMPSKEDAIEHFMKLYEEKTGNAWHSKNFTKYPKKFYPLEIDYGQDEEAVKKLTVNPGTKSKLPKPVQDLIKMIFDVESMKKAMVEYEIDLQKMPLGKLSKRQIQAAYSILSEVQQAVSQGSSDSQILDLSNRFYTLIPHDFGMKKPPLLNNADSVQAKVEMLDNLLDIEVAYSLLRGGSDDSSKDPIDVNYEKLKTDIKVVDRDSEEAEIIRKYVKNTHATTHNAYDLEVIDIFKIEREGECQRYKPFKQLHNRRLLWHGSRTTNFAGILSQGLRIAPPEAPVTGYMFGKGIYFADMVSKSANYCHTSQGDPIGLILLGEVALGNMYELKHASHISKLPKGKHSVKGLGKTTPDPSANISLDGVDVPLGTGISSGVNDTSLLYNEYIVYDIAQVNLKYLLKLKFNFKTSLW

Turning to “DNA Ligase IIIalpha (LigIII), endogenous (from UniProt P49916 43-1009) (enzyme)”, in the experiment with Flag-FUS-R521H (human), the percent reduction of PLA association against WT FUS was > 80%.

B1: GST-FUS (natural protein, human, UniProt P35637 1-526, looked up)
chain: MASNDYTQQATQSYGAYPTQPGQGYSQQSSQPYGQQSYSGYSQSTDTSGYGQSSYSSYGQSQNTGYGTQSTPQGYGSTGGYGSSQSSQSSYGQQSSYPGYGQQPAPSSTSGSYGSSSQSSSYGQPQSGSYSQQPSYGGQQQSYGQQQSYNPPQGYGQQNQYNSSSGGGGGGGGGGNYGQDQSSMSSGGGSGGGYGNQDQSGGGGSGGYGQQDRGGRGRGGSGGGGGGGGGGYNRSSGGYEPRGRGGGRGGRGGMGGSDRGGFNKFGGPRDQGSRHDSEQDNSDNNTIFVQGLGENVTIESVADYFKQIGIIKTNKKTGQPMINLYTDRETGKLKGEATVSFDDPPSAKAAIDWFDGKEFSGNPIKVSFATRRADFNRGGGNGRGGRGRGGPMGRGGYGGGGSGGGGRGGFPSGGGGGGGQQRAGDWKCPNPTCENMNFSWRNECNQCKAPKPDGPGGGPGGSHMGGNYGDDRRGGRGGYDRGGYRGRGGDRGGFRGGRGGGDRGGFGPGKMDSRGEHRQDRRERPY
notes: FUS in pGEX6P-1, plasmid purchased from Addgene; The FUS of the ligation assays is named only 'purified FUS'; also called purified FUS; recombinant FUS; source: E. coli BL21, purified (glutathione-Sepharose 4B)
Take B1: in experiment [1], the “catalytic efficiency of LigIII in the nick ligation reaction of XRCC1/LigIII with or without FUS” value turned out to be 4 fold and the “in vitro DNA nick ligation by XRCC1/LigIII complex (100 f.moles) with FUS 10-500 f.moles; fold change in ligated product” value is ~5 fold. For the same molecule, in experiment [2], the binding result is on record as “binds”.
